How the values were obtained:
[1] = target: T1, human MET-Fc (R&D Systems) (human, UniProt P08581 25-932); assay: competition ELISA, hMET-Fc in solid phase, competitor 0.3 nM biotinylated hHGF
T1 construct: extracellular domain; bought chimeric protein; also called hMET; not shown: Fc portion of human IgG1
Method in brief: (§1)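 Recombinant HGF was biotinylated at its N-terminus with NHS-LC-biotin. Immobilized MET-Fc was exposed to the labelled ligand in the presence of increasing antibody concentrations (0-120 nM). Competition was expressed as IC₅₀, the concentration giving 50% competition, and IMAX, the maximum % competition at saturation.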

[2] = target: T2, human MET ECD (human, UniProt P08581 25-932); assay: ELISA, MET ECD in solid phase, mAb 0-50 nM
T2 construct: range 1-932; recombinant ECD made by the applicants; the stated range begins at residue 1, so it includes the signal peptide of the entry; also called hMET; hMET ECD
Method: Using human MET as a template, we mutagenized each of these residues in different permutations, generating a series of MET mutants that are fully human except for specific residues, which are llama. Next, we tested the affinity of selected SEMA-binding mAbs (71D6, 71C3, 71D4, 71A3, 71G2) and PSI-binding mAbs (76H10 and 71G3) for these MET mutants by ELISA. To this end, the various MET proteins were immobilized in solid phase (100 ng/well in a 96-well plate) and then exposed to increasing concentrations of antibodies (0-50 nM) solution. […] Wild-type human MET was used as positive control.
TABLE 18 The epitopes of MET responsible for agonistic antibody binding represent residues conserved among H. sapiens, M. musculus, R. norvegicus, M. fascicularis but not among the same species and L. glama. The relevance of residues conserved among human, mouse, rat, cynomolgus monkey but not llama MET for binding to agonistic mAbs was tested by ELISA. Wild-type (WT) or mutant (MT) human MET ECD was immobilized in solid phase and exposed to increasing concentrations of mAbs in solution. […] All binding values were normalized to the WT protein and are expressed as % binding (EMAX) compared to WT MET.

[3] = target: T3, native mouse MET on living cells (mouse, UniProt P16056 25-1379); assay: cell-based or functional assay
[4] = target: T4, native human MET on living cells (human, UniProt P08581 25-1390); assay: cell-based or functional assay
[5] = target: T4, native human MET on living cells; assay: flow cytometry, A549 cells
Method in brief: (§2)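 Detection used a phycoerythrin-labelled anti-human IgG1 secondary and flow cytometry, measuring binding of chimeric antibodies to native MET on live A549 (human) or MLP29 (mouse) cells. Positive controls were a mouse anti-human MET and a goat anti-mouse MET antibody, each with a PE-labelled secondary.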

[6] = target: T3, native mouse MET on living cells; assay: cell-based or functional assay; remark: listed apart in the source
[7] = target: T4, native human MET on living cells; assay: cell-based or functional assay; remark: listed apart in the source
[8] = target: T3, native mouse MET on living cells; assay: cell-based or functional assay; remark: listed apart in the source
[9] = target: T4, native human MET on living cells; assay: cell-based or functional assay; remark: listed apart in the source
[10] = target: T5, mouse MET-Fc (R&D Systems) (mouse, UniProt P16056 25-929, limits assumed); assay: competition ELISA, mMET-Fc in solid phase, competitor 0.3 nM biotinylated mHGF
T5 construct: bought chimeric protein; also called mMET; not shown: Fc part
Method in brief: as §1

[11] = target: T3, native mouse MET on living cells; assay: cell-based or functional assay; remark: listed apart in the source
[12] = target: T4, native human MET on living cells; assay: cell-based or functional assay; remark: listed apart in the source
[13] = target: T3, native mouse MET on living cells; assay: flow cytometry, MLP29 cells
Method in brief: as §2

[14] = target: human MET ECD mutant H (mutations 2, 4) (human) (UniProt P08581); assay: ELISA, MET ECD in solid phase, mAb 0-50 nM
[15] = target: human MET ECD mutant E (mutations 2, 3, 4) (human) (UniProt P08581); assay: ELISA, MET ECD in solid phase, mAb 0-50 nM
[16] = target: human MET ECD mutant D (mutations 1, 2) (human) (UniProt P08581); assay: ELISA, MET ECD in solid phase, mAb 0-50 nM
[17] = target: human MET ECD mutant A (mutations 1, 2, 3) (human) (UniProt P08581); assay: ELISA, MET ECD in solid phase, mAb 0-50 nM
[18] = target: T2, human MET ECD; assay: ELISA, MET ECD in solid phase, mAb 0-20 nM
Method in brief: (§3)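 ELISA with human or mouse MET ECD coated on the plate; increasing antibody concentrations (0-20 nM) added in solution. Antibodies were chimeric llama-human IgG1, made by transient mammalian transfection and purified on protein A.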

[19] = target: T6, mouse MET ECD (mouse, UniProt P16056 25-931); assay: ELISA, MET ECD in solid phase, mAb 0-20 nM
T6 construct: range 1-931; recombinant ECD made by the applicants; the stated range begins at residue 1; also called mMET; mMET ECD
Method in brief: as §3

[20] = target: human MET ECD mutant J (mutations 6, 7) (human) (UniProt P08581); assay: ELISA, MET ECD in solid phase, mAb 0-50 nM
[21] = target: human MET ECD mutant I (mutations 6, 7, 8) (human) (UniProt P08581); assay: ELISA, MET ECD in solid phase, mAb 0-50 nM

T4 sequence (P08581 25-1390): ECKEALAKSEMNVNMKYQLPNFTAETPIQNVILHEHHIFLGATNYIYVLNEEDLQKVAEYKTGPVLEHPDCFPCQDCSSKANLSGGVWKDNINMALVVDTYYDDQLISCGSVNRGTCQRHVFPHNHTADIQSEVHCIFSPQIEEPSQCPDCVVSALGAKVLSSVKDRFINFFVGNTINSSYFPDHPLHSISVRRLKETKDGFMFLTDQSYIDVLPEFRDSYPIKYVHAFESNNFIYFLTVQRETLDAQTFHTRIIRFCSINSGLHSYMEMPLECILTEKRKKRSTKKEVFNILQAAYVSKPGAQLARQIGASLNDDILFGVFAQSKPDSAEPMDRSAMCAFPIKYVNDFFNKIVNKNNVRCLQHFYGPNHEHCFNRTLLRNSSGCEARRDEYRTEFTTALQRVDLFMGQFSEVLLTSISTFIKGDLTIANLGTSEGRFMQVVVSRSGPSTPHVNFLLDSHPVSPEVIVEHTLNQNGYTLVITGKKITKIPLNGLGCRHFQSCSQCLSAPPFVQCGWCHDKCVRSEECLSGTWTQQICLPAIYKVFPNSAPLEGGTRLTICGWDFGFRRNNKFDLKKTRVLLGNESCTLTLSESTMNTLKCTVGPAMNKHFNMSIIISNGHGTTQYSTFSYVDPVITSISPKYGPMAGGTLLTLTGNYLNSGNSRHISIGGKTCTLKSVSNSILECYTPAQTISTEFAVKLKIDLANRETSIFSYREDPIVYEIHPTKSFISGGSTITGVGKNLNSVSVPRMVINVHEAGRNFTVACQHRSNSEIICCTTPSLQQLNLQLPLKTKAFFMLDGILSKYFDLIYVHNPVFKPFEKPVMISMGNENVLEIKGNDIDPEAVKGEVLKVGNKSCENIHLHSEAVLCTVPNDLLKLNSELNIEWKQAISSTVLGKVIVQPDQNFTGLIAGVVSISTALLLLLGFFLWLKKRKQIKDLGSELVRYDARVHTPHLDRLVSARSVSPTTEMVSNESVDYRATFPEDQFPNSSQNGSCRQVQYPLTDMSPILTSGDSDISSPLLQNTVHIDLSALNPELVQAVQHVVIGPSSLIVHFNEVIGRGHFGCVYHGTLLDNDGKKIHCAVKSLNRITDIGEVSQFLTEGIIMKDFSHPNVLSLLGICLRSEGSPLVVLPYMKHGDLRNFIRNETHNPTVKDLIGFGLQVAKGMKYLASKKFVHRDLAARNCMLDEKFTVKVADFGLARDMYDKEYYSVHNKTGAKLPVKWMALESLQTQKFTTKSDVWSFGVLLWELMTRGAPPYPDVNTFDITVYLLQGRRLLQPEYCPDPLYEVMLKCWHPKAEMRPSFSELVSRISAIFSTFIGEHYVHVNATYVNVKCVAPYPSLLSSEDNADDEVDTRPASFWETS
T1 sequence (P08581 25-932): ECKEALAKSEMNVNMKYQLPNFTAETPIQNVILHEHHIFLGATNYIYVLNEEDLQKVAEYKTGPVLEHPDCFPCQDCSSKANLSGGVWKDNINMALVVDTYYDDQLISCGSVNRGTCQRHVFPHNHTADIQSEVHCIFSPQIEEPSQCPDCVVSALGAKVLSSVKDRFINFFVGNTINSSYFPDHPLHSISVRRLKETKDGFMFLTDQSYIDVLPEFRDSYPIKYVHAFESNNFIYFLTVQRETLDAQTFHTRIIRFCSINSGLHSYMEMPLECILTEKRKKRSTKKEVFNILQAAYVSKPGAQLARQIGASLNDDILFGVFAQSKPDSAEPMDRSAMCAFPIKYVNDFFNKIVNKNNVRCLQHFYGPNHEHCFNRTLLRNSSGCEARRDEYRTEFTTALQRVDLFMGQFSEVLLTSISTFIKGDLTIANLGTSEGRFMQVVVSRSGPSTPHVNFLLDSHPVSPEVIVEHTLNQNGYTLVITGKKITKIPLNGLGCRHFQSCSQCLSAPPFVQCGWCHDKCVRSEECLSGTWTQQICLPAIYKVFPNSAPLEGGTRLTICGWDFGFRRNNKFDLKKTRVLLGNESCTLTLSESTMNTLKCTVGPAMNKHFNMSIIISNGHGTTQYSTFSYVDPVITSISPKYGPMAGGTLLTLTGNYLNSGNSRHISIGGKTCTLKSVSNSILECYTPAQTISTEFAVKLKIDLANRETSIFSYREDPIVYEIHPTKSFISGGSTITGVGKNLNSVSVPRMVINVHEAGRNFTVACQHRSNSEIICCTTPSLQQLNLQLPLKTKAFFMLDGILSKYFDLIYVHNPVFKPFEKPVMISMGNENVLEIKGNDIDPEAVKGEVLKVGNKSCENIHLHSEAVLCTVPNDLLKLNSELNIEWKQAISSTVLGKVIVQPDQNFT
T2 sequence (P08581 25-932 limits assumed, form in doubt): as the sequence (P08581 25-932) above

B1: 71G2 chimeric llama-human IgG1 mAb (antibody, V domains shown)
VH: EVQLQESGGGLVQPGGSLRLSCAASGFTFSIYDMSWVRQAPGKGLEWVSTINSDGSSTSYVDSVKGRFTISRDNAKNTLYLQMNSLKPEDTAVYYCAKVYGSTWDVGPMGYGMDYWGKGTLVTVSS
VL: SSALTQPSALSVSLGQTARITCQGGSLGSSYAHWYQQKPGQAPVLVIYGDDSRPSGIPERFSGSSSGGTATLTISGAQAEDEDDYYCQSTDSSGNTVFGGGTRLTVL
notes: llama VH on human IgG1 CH1-CH2-CH3, llama VL on human lambda CL
IC50 [1]: 0.23 nM
IMAX [1]: 97.8%
% binding (EMAX) compared to WT MET [2]: 100 % WT MET ECD
branches per spheroid, MLP29 cells, 0.5 nM [3]: 34 branches
branches per spheroid, MLP29 cells, 2.5 nM [3]: 46.3 branches
branches per spheroid, MLP29 cells, 12.5 nM [3]: 45 branches
branches per spheroid, LOC cells, 0.5 nM [4]: 25.3 branches
branches per spheroid, LOC cells, 2.5 nM [4]: 29.3 branches
branches per spheroid, LOC cells, 12.5 nM [4]: 31.7 branches
EC50 [5]: 0.604 nM
EMAX [5]: 144 % relative to control
scatter score 0-4, MLP29, 0.001 nM [6]: 0 score
scatter score 0-4, MLP29, 0.004 nM [6]: 0 score
scatter score 0-4, MLP29, 0.012 nM [6]: 1 score
scatter score 0-4, MLP29, 0.037 nM [6]: 2 score
scatter score 0-4, MLP29, 0.111 nM [6]: 4 score
scatter score 0-4, MLP29, 0.333 nM [6]: 4 score
scatter score 0-4, MLP29, 1.000 nM [6]: 4 score
scatter score 0-4, MLP29, 3.000 nM [6]: 4 score
scatter score 0-4, MLP29, 9.000 nM [6]: 4 score
scatter score 0-4, HPAF-II, 0.001 nM [7]: 0 score
scatter score 0-4, HPAF-II, 0.004 nM [7]: 1 score
scatter score 0-4, HPAF-II, 0.012 nM [7]: 2 score
scatter score 0-4, HPAF-II, 0.037 nM [7]: 3 score
scatter score 0-4, HPAF-II, 0.111 nM [7]: 4 score
scatter score 0-4, HPAF-II, 0.333 nM [7]: 4 score
scatter score 0-4, HPAF-II, 1.000 nM [7]: 4 score
scatter score 0-4, HPAF-II, 3.000 nM [7]: 4 score
scatter score 0-4, HPAF-II, 9.000 nM [7]: 4 score
protection from staurosporine, viability EC50, MLP29 cells [8]: 1.99 nM
protection from staurosporine, viability EMAX, MLP29 cells [8]: 58.3%
protection from staurosporine, viability EC50, MCF10A cells [9]: 1.06 nM
protection from staurosporine, viability EMAX, MCF10A cells [9]: 64.8%
IC50 [10]: 0.26 nM
IMAX [10]: 91.9%
phospho-MET ELISA EC50, MLP29 cells [11]: 0.25 nM
phospho-MET ELISA EMAX (% HGF activity), MLP29 cells [11]: 110%
phospho-MET ELISA EC50, A549 cells [12]: 0.37 nM
phospho-MET ELISA EMAX (% HGF activity), A549 cells [12]: 101%
EC50 [13]: 0.688 nM
EMAX [13]: 130 % relative to control
% binding (EMAX) compared to WT MET [14]: 40.2 % WT MET ECD
% binding (EMAX) compared to WT MET [15]: 41.4 % WT MET ECD
% binding (EMAX) compared to WT MET [16]: 114 % WT MET ECD
% binding (EMAX) compared to WT MET [17]: 92.1 % WT MET ECD
EC50 [18]: 0.112 nM
EMAX (OD450) [18]: 3.09 AU
EC50 [19]: 0.101 nM
EMAX (OD450) [19]: 3.17 AU

B2: 76H10 chimeric llama-human IgG1 mAb (antibody, V domains shown)
VH: QLQLVESGGGLVQPGGSLRVSCTASGFTFNTYYMTWVRQAPGKGLEWVSDINSGGGTYYADSVKGRFTISRDNAKNTLYLQMNSLKPEDTALYYCVRVRIWPVGYDYWGQGTQVTVSS
VL: QAVVTQEPSLSVSPGGTVTLTCGLSSGSVTTSNYPGWFQQTPGQAPRTLIYNTNNRHSGVPSRFSGSISGNKAALTITGAQPEDEADYYCSLYTGSYTTVFGGGTHLTVL
notes: as for B1
IC50 [1]: 1.86 nM
IMAX [1]: 64.2%
branches per spheroid, MLP29 cells, 0.5 nM [3]: 10.7 branches
branches per spheroid, MLP29 cells, 2.5 nM [3]: 14.3 branches
branches per spheroid, MLP29 cells, 12.5 nM [3]: 24.7 branches
branches per spheroid, LOC cells, 0.5 nM [4]: 7.3 branches
branches per spheroid, LOC cells, 2.5 nM [4]: 11.7 branches
branches per spheroid, LOC cells, 12.5 nM [4]: 16.7 branches
EC50 [5]: 2.35 nM
EMAX [5]: 130 % relative to control
scatter score 0-4, MLP29, 0.001 nM [6]: 0 score
scatter score 0-4, MLP29, 0.004 nM [6]: 0 score
scatter score 0-4, MLP29, 0.012 nM [6]: 0 score
scatter score 0-4, MLP29, 0.037 nM [6]: 0 score
scatter score 0-4, MLP29, 0.111 nM [6]: 0 score
scatter score 0-4, MLP29, 0.333 nM [6]: 0 score
scatter score 0-4, MLP29, 1.000 nM [6]: 1 score
scatter score 0-4, MLP29, 3.000 nM [6]: 2 score
scatter score 0-4, MLP29, 9.000 nM [6]: 3 score
scatter score 0-4, HPAF-II, 0.001 nM [7]: 0 score
scatter score 0-4, HPAF-II, 0.004 nM [7]: 0 score
scatter score 0-4, HPAF-II, 0.012 nM [7]: 0 score
scatter score 0-4, HPAF-II, 0.037 nM [7]: 0 score
scatter score 0-4, HPAF-II, 0.111 nM [7]: 0 score
scatter score 0-4, HPAF-II, 0.333 nM [7]: 0 score
scatter score 0-4, HPAF-II, 1.000 nM [7]: 1 score
scatter score 0-4, HPAF-II, 3.000 nM [7]: 2 score
scatter score 0-4, HPAF-II, 9.000 nM [7]: 3 score
protection from staurosporine, viability EC50, MLP29 cells [8]: > 32 nM
protection from staurosporine, viability EMAX, MLP29 cells [8]: 27.2%
protection from staurosporine, viability EC50, MCF10A cells [9]: > 32 nM
protection from staurosporine, viability EMAX, MCF10A cells [9]: 22.8%
IC50 [10]: 2.01 nM
IMAX [10]: 62.7%
phospho-MET ELISA EC50, MLP29 cells [11]: 2.91 nM
phospho-MET ELISA EMAX (% HGF activity), MLP29 cells [11]: 64.1%
phospho-MET ELISA EC50, A549 cells [12]: 1.77 nM
phospho-MET ELISA EMAX (% HGF activity), A549 cells [12]: 61.2%
EC50 [13]: 1.6 nM
EMAX [13]: 124 % relative to control
% binding (EMAX) compared to WT MET [20]: 89 % WT MET ECD
% binding (EMAX) compared to WT MET [21]: 100 % WT MET ECD
EC50 [18]: 0.09 nM
EMAX (OD450) [18]: 2.67 AU
EC50 [19]: 0.062 nM
EMAX (OD450) [19]: 2.66 AU
